# According to CN111544600A (UNIV CHINA PHARMA, dated 2020):
# B1: 抗人DLL4人源化抗体H3L2 (antibody, V domains shown)
# VH: QVQLVQSGAEVKKPGSSVKVSCKASGYTFSGYWMQWIKQAPGQGLEWIGAIYPGDGDTRYTQKFKGRATLTADKSTSTAYMELSSLRSEDTAVYYCAGGNFFFDYWGQGTLVTVSS
# VL: EIVITQSPDFQSVTPKEKVTITCSVSSSISSSYLHWYQQKPDQSPKPWIYGTSNLASGVPSRFSGSGSGTDYTLTINSLEAEDAATYYCQQWSSSPLTFGQGTKLEIKV
# Biological target: T1, 人DLL4抗原 (human, UniProt Q9NR61 27-524, limits assumed)
# T1 construct: Coated at 1 μg/mL; also called Delta like 4
# Test: ELISA, DLL4 antigen coated on plate, HRP secondary antibody, OD450-OD630
# T1 sequence (Q9NR61 27-524 limits assumed): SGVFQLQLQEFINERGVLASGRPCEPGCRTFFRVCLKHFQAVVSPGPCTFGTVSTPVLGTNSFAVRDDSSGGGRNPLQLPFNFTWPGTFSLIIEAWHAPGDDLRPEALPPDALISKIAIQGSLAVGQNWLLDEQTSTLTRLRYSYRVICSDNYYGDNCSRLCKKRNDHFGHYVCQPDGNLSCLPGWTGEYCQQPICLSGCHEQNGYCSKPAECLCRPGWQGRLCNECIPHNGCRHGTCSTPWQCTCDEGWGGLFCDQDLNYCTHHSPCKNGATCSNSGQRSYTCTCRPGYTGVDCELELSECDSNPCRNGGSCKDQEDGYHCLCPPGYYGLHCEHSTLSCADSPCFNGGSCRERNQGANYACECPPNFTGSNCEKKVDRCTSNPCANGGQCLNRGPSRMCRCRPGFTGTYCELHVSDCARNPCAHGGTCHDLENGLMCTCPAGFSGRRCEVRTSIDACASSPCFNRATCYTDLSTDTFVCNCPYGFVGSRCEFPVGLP
binder,measurement,value
B1,EC50,49.2 nM
